In experiment [1] the target is T1, CD38 on CD38(+) cancer cells (RPMI8226, Raji, Daudi) (UniProt P28907 1-300, limits assumed).
T1 construct: whole, on cells; Endogenous CD38 on tumour cell lines; also called CD38(+) tumor cells; CD38(+) Raji cells
Nature of the experiment: flow cytometry on RPMI 8226 cells, detection with an anti-his tag antibody.

The target of experiment [2] is T2, human CD38 antigen (recombinant human CD38 protein) (human, UniProt P28907 43-300, limits assumed). Nature of the experiment: SPR, construct captured on immobilised protein-L (HC30M chip), human CD38 antigen flown over. A general note: Surface plasmon resonance follows binding to a sensor surface in real time, without labels.
Experiment [3] deals with T1, CD38 on CD38(+) cancer cells (RPMI8226, …). Nature of the experiment: flow cytometry on Raji cells, detection with an anti-his tag antibody. On the technique in general: A flow cytometer gives signals particle by particle.
Experiment [4] has as its target T2, human CD38 antigen (recombinant human …). The experiment is described as follows: SPR, antibody captured on Protein-L chip, human CD38 in solution; murine antibody, not named.
For experiment [5] the target is unchanged. The experiment is described as follows: SPR, antibody captured on Protein-L chip, human CD38 in solution.

B1: 8DC-1 (anti-CD38 scFv-(G4S)4-huC825 anti DOTA scFv-linker-P53-linker-His tag) (bispecific antibody)
chain: QVQLKQSGPGLVHPSQSLSITCTVSGFSLTSYGVHWVRQSPGKGLEWLGVMWRGGSTDYNAAFMSRLNITKDNSKRQVFFKMNSLQADDTAIYYCAKSMITTGFVMDSWGQGTSVTVSSGGGGSGGGGSGGGGSGGGGSGGGGSGGGGSDIQLTQSPSSFSVSLGDRVTITCKASEDIYNRLTWYQQKPGNAPRLLISGATSLETGVPSRFSGSGSGKDYTLSITSLQTEDVATYYCQQYWSNPYTFGGGTKLEIRGGGGSGGGGSGGGGSGGGGSHVQLVESGGGLVQPGGSLRLSCAASGFSLTDYGVHWVRQAPGKGLEWLGVIWSGGGTAYNTALISRFTISRDNSKNTLYLQMNSLRAEDTAVYYCARRGSYPYNYFDAWGCGTLVTVSSGGGGSGGGGSGGGGSGGGGSGGGGSGGGGSQAVVTQEPSLTVSPGGTVTLTCGSSTGAVTASNYANWVQQKPGQCPRGLIGGHNNRPPGVPARFSGSLLGGKAALTLLGAQPEDEAEYYCALWYSDHWVIGGGTKLTVLGTPLGDTTHTSGKPLDGEYFTLQIRGRERFEMFRELNEALELKDAQAGKEPGGSGGAPHHHHHH
notes: SADA construct with the murine AT13/5 VH and VL; also called the murine antibody
Usually EC50 (read off the curve) stands for the concentration that produces a half-maximal response. The term koff denotes a measure of how fast the partners let go of each other. As a reminder, the kon is the rate constant with which the complex forms. The term Kd denotes a measure of binding affinity in units of concentration. B1: the “EC50 (read off the curve)” value in experiment [1] was around 0.06 µg/mL. Moreover, in experiment [2], the koff came out at 0.0012 s⁻¹ and the kon came out at 160000 M⁻¹ s⁻¹. Also, in experiment [3], the “EC50 (read off the curve)” value was around 0.05 µg/mL. For the same molecule, in experiment [4], the Kd was 7.4 nM.

B2: 8DC-2 (anti-CD38 scFv-(G4S)4-huC825 anti DOTA scFv-linker-P53-linker-His tag) (bispecific antibody)
chain: QVQLQESGPGLVRPSQTLSLTCTVSGFTFTSYGVHWVRQPPGRGLEWIGVMWRGGSTDYNAAFMSRVTMLVDTSKNQFSLRLSSVTAADTAVYYCAKSMITTGFVMDSWGQGSLVTVSSGGGGSGGGGSGGGGSGGGGSGGGGSGGGGSDIQMTQSPSSLSASVGDRVTITCKASEDIYNRLTWYQQKPGKAPKLLISGATSLETGVPSRFSGSGSGTDFTFTISSLQPEDIATYYCQQYWSNPYTFGQGTKVEIKGGGGSGGGGSGGGGSGGGGSHVQLVESGGGLVQPGGSLRLSCAASGFSLTDYGVHWVRQAPGKGLEWLGVIWSGGGTAYNTALISRFTISRDNSKNTLYLQMNSLRAEDTAVYYCARRGSYPYNYFDAWGCGTLVTVSSGGGGSGGGGSGGGGSGGGGSGGGGSGGGGSQAVVTQEPSLTVSPGGTVTLTCGSSTGAVTASNYANWVQQKPGQCPRGLIGGHNNRPPGVPARFSGSLLGGKAALTLLGAQPEDEAEYYCALWYSDHWVIGGGTKLTVLGTPLGDTTHTSGKPLDGEYFTLQIRGRERFEMFRELNEALELKDAQAGKEPGGSGGAPHHHHHH
notes: SADA construct with VL7 and VH10 (published huAT13/5 of Ellis et al.)
Take B2: in experiment [2], the koff was found to be 0.001 s⁻¹ and the kon turned out to be 6400 M⁻¹ s⁻¹. In addition, in experiment [5], the equilibrium dissociation constant (Kd) was 163 nM.

(Values after US20230312742A1 (Y MABS THERAPEUTICS, published 2023).)
